Assay [1] addresses T1, CSPG4 (Homo sapiens, UniProt Q6UVK1).
T1 construct: screening against CSPG4 wild type and knockout cell lysates via western blot and cell staining via immunofluorescence; endogenous in cells; host or cells: HEY, ES-2 and A2780 human ovarian cancer cell lines (parent/mock cells, with CSPG4-CRISPR knockouts as negative control)
Put plainly: Specificity of antibody by western blot of CSPG4 wild type and knockout cell lysates and immunofluorescence cell staining. It is filed as binding. The note with it: western blot of mock and CSPG4-CRISPR cell lines; immunofluorescence of HEY parent cells. As to the method: FIGS. 1A-1D. Antibody 7H5A2 targets CSPG4. FIG. 1A) Amino acid sequence of recombinant protein target used to generate antibody 7H5A2 (SEQ ID NO:34). Black text denotes CSPG4 region (SEQ ID NO:33), the lighter gray text corresponds to human FC sequence for protein purification. […]) Western blot with CSPG4 antibodies 763.74 (FIG. 1B) and 7H5A2 (FIG. 1C). Cells are harvested in lysis buffer and 40 μg protein was loaded in each well from the indicated mock and CSPG4-CRISPR cell lines. Alpha-tubulin is included as a loading control. FIG. 1D) Immunofluorescence staining of HEY parent cells with antibody 7H5A2. Red bar=10 μm. Magnification 600×.
Western blot: Western blots were performed using standard methods as described previously by Yang, et al., Cancer Res. 69(19):7538-47 (2009). […]
Generation of novel CSPG4 antibody: CSPG4-specific mouse monoclonal antibody 7H5A2 was generated by Promab Biotechnologies Inc (Richmond, CA) by injection of a recombinant CSPG4 protein immunogen corresponding to aa 1538-2221 of the CSPG4 core protein extracellular domain, expressed and purified from a eukaryotic expression system (see FIG. 1A). The specificity of the antibody was determined by screening against CSPG4 wild type and knockout cell lysates via western blot and cell staining via immunofluorescence (see FIGS. 1B and 1C). […]
(In general: Immunoblotting shows a protein as a band on a membrane.)

Assay [2] has as its system FAK activation and ZEB1 expression in EOC cells. Put plainly: Western blot for pFAK, FAK and ZEB1 in EOC cells plated in 1% methylcellulose with antibody. The assay is classed as cell-based, human. The note with it: 50 μg/ml antibody vs normal mouse IgG1, suspension culture 24 hours, all three cell lines. As to the method: (§1) FIGS. 10A-10D. Anti-CSPG4 antibody 7H5A2 inhibits Zeb1 expression and FAK activation, cell invasion and spheroid formation. FIG. 10A) Western blot for pFAK, FAK, and ZEB1 in EOC cells plated in 1% methylcellulose in the presence of 50 μg/ml normal mouse IgG1 (nmIgG1) or anti-CSPG4 antibody 7H5A2 cultured in suspension for 24 hours. FIG. 10B) Invasion assay using HEY cells pre-incubated with control (nm IgG1) or anti-CSPG4 (763.74 and 7H5A2) antibodies at 50 μg/ml for 2 hours and then plated in invasion chambers in the presence of the antibody in the top chamber only for 24 hours. Bars represent the total number of invading cells counted in five random fields/well from duplicate wells, +/−S.D. P values determined by student's t-test with Welch's correction. n=6 from 3 separate experiments. FIG. 10C) Cell growth assay using EOC cells plated in the presence of the indicated antibodies at 50 μg/ml in 1% methylcellulose for 7 days (HEY) or 14 days (A2780 and ES-2). Cells were collected from methylcellulose culture at those time points, and re-plated overnight in normal growth media in tissue culture plates. The following day all cells were collected from each well and counted. P values determined by student's t-test with Welch's correction, comparing live cell numbers (determined by trypan blue exclusion) from each condition, n=4. […]

Assay [3] has as its system HEY cells. Put plainly: Matrigel invasion assay with antibody pre-incubation. The note with it: 50 μg/ml antibody, 2 hours pre-incubation, 24 hours, inhibition greater than with antibody 763.74. It is filed as cell-based, human. Here is the method: as §1
The test system of assay [4] is EOC cells (HEY, A2780, ES-2). As to the kind of experiment: Spheroid formation / cell growth assay in 1% methylcellulose with antibody. It is filed as cell-based, human. The note with it: CSPG4 expressing mock transfected EOC cells, 50 μg/ml antibody. Here is the method: as §1

T1 sequence (Q6UVK1 30-2322): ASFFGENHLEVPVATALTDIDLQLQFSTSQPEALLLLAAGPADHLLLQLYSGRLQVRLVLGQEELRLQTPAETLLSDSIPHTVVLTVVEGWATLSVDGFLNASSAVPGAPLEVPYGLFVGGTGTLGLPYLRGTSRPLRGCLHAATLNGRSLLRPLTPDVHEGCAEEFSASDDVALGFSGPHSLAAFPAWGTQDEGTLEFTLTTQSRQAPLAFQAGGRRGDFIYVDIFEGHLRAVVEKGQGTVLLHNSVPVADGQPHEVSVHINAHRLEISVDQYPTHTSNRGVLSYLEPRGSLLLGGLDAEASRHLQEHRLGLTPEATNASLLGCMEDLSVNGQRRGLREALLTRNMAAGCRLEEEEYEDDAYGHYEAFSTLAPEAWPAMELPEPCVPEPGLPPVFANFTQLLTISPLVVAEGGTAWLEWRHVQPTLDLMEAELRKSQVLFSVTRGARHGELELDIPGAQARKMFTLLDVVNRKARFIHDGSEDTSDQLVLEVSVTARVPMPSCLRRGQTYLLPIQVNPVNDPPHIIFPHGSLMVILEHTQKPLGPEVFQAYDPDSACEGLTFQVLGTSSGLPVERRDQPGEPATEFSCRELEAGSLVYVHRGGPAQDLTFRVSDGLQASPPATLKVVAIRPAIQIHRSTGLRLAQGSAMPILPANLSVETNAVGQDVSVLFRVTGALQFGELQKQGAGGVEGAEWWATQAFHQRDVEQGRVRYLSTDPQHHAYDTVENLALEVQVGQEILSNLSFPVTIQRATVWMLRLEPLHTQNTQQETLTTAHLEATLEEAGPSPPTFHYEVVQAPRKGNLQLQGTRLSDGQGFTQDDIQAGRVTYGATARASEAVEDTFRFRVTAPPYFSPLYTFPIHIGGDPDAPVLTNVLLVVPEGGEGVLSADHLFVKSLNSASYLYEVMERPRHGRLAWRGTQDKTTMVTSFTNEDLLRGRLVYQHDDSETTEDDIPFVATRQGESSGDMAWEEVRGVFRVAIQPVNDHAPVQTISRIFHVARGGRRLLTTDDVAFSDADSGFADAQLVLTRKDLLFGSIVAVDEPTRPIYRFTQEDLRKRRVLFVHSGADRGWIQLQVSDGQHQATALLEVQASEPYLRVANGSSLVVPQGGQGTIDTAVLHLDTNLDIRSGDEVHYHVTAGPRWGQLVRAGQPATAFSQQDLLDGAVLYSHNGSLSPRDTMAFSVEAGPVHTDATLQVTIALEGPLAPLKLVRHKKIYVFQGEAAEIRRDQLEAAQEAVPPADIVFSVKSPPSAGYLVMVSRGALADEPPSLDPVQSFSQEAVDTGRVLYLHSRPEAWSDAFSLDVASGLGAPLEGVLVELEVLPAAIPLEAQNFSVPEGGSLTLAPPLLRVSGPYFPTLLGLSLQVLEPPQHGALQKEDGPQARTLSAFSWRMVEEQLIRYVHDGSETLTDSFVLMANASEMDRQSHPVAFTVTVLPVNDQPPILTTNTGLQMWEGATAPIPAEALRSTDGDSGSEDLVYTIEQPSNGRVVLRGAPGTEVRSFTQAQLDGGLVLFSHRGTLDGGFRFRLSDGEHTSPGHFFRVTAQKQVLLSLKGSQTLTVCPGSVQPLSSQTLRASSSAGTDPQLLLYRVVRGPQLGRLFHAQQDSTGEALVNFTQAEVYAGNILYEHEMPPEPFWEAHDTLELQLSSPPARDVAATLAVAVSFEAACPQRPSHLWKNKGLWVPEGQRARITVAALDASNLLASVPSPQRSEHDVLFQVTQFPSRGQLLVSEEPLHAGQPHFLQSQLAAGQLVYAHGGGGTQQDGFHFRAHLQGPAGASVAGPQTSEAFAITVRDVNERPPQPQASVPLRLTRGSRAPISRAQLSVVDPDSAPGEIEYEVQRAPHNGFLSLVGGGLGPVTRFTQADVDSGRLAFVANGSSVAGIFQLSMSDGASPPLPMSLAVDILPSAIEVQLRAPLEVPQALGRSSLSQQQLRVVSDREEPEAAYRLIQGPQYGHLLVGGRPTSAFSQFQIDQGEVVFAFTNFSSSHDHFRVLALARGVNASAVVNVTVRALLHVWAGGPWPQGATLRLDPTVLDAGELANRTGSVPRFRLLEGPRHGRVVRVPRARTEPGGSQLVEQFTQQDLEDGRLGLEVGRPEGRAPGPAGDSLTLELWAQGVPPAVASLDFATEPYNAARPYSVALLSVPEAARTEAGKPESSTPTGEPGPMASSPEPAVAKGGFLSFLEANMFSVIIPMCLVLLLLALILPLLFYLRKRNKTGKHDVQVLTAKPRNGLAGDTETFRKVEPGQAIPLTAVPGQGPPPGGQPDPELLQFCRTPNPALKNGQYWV

B1: 7H5A2: CSPG4-specific mouse monoclonal antibody, isotype IgG1; heavy chain variable SEQ ID NO:8, light chain variable SEQ ID NO:16 (antibody, V domains shown)
VH: QVQLQQSGAELVRPGSSVKISCKASGFAFSNYWMNWVKQRPGQGLEWIGQIFPGDGDTNYNGKFKGKATLTADKSSSTAYMQLISLTSEDSAVYFCVRESDWGRGTTLTVSS
VL: DIQMTQTTSSLSASLGDRVTISCSASQGINNYLNWYQQTPDGTVKLLIFYTSSLQSGVPSRFSGSGSGTDYSLTISNLEPEDIATYYCQQYSKLPFTFGSGTKLEIKR
Take B1: the “recognition of CSPG4 on the cell surface” value in assay [1] is listed as “specifically recognizes CSPG4 on the cell surface”. Also, in assay [2], the ZEB1 expression entry is on record as “inhibited” and the “activation of FAK” value is on record as “inhibited”. For the same molecule, the EOC invasion result in assay [3] was “significantly inhibited”. In addition, the spheroid formation result in assay [4] (7 days (HEY) or 14 days (A2780 and ES-2)) is “significantly inhibited”. In addition, the EOC cell survival entry in assay [4] (live cell numbers by trypan blue exclusion) is “significantly inhibited”.

The record behind these values is patent US20250313648A1, “Binders of Chondroitin Sulfate Proteoglycan (CSPG4) Polypeptides” (Regents of the University of Minnesota, priority 2021, published 2025).
